Results published in US20180017576A1 (WESTFAELISCHE WILHELMS UNIVERSITAET MUENSTER, published 2018).
Numbering of substitutions follows the chain as printed. Names and notes keep the numbering of the source.

T1: recombinant human S100A9 protein, wild type (human, UniProt P06702 2-114)
T1 construct: also called recS100A9; S100A9 wt
T1 sequence: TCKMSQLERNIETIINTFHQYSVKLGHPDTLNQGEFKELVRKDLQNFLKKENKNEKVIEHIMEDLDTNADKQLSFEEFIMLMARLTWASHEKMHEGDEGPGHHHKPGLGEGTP

B1: recombinant human S100A8 protein (other)
chain: LTELEKALNSIIDVYHKYSLIKGNFHAVYRDDLKKLLETECPQYIRKKGADVWFKELDINTDGAVNFQEFLILVIKMGVAAHKKSHEESHKE
notes: also called recS100A8; MRP8
B2: recS100A8/S100A9(N69A+E78A) heterodimer (other)
chain 1: B1 chain
chain 2: T1 sequence with N68A, E77A
notes: Heterodimer of S100A8 and doubly mutated S100A9
B3: recS100A8/S100A9 wt heterodimer (other)
chain 1: B1 chain
chain 2: T1 sequence
notes: Heterodimer of one S100A8 and one S100A9 chain; Two such heterodimers associate to the (S100A8/S100A9)2 tetramer in the presence of calcium; also called recS100A8/S100A9 wild-type complex; wt S100A8/S100A9
B4: recS100A8/S100A9(E78A) heterodimer (other)
chain 1: B1 chain
chain 2: T1 sequence with E77A
notes: Heterodimer of S100A8 and mutated S100A9; also called recS100A8/S100A9(E78A) mutant complex
B5: recS100A8/S100A9(N69A) heterodimer (other)
chain 1: B1 chain
chain 2: T1 sequence with N68A
notes: Heterodimer of S100A8 and mutated S100A9; also called recS100A8/S100A9(N69A) mutant complex
B6: recombinant human S100A9(N69A) (other)
chain: T1 sequence with N68A
notes: also called N69A mutant
B7: recombinant human S100A9(N69A+E78A) (other)
chain: T1 sequence with N68A, E77A
notes: also called double mutant
B8: recombinant human S100A9(E78A) (other)
chain: T1 sequence with E77A
notes: also called E78A mutant

Tests used:
[1] = target: T1, recombinant human S100A9 protein, wild …; assay: MALDI-MS, native solvent conditions, no calcium
[2] = target: the molecule itself; assay: MALDI-MS, native solvent conditions, with calcium
Text: FIG. 2: MALDI mass spectra in the absence and presence of calcium under native solvent conditions. (a) MALDI mass spectra of recS100A8/S100A9 wt complexes in the absence (left) and presence (right) of calcium using 2,6-dihydroxy-acetophenone as matrix. The mass spectra between m/z 20,000 and 100,000 together with an inset between m/z 46,000 and 50,000 are shown. T⁺, singly charged; T²⁺, doubly charged; T³⁺, triply charged tetramer. (b) MALDI mass spectra of recS100A8/S100A9(N69A) mutant complexes in the absence (left) and presence (right) of calcium.
The oligomerization properties of the recS100A8/S100A9 mutant complexes can be determined by MALDI-MS. As shown exemplarily for the N69A mutant in FIG. 2(b), all mutant S100A9 proteins display signals for singly charged heterodimers in the absence of calcium. In contrast to the results obtained with the recS100A8/S100A9 wt proteins no heterotetramers can be observed for the mutant complexes in the presence of calcium (FIG. 2). The base peaks under these conditions exclusively represent S100A8/S100A9(N69A), S100A8/S100A9(E78A) and S100A8/S100A9(N69A+E78A) heterodimers. All MALDI-MS experiments presented here were also confirmed by ESI-MS measurements (see FIG. 3).

[3] = target: the molecule itself; assay: glycerol density gradient centrifugation, 100 uM Ca2+
Method: (§1) FIG. 5: Density gradient centrifugation. wt and mutant recS100A8/S100A9 complexes were loaded on a glycerol gradient in the presence of either 1 mM EGTA or 100 μM Ca²⁺. After centrifugation, successive fractions of the gradients were analyzed by SDS-PAGE. […] Addition of calcium induced a marked shift for recS100A8/S100A9 wt to higher glycerol densities, whereas for the mutant complexes recS100A8/S100A9(N69A) and recS100A8/S100A9(E78A) no shift was observed.

[4] = target: B1; assay: glycerol density gradient centrifugation, 1 mM EGTA
Method: as §1

[5] = target: B1; assay: ESI-MS, native solvent conditions

Binder: B1
binding result [1]: binds

Binder: B2
binding result [2]: no binding

Binder: B3
binding result [3]: binds

Binder: B4
binding result [2]: no binding

Binder: B5
binding result [2]: no binding

Binder: B6
binding result [4]: binds

Binder: B7
binding result [5]: binds

Binder: B8
binding result [4]: binds
